Assay [1] has as its target full length CrkII, dimer (CrkII^FL dimer) (human), P46108. Put plainly: SEC. As to conditions: remark: other sources report otherwise.
Assay [2] concerns the target T1, human 14-3-3ε (human), P62258.
T1 chain: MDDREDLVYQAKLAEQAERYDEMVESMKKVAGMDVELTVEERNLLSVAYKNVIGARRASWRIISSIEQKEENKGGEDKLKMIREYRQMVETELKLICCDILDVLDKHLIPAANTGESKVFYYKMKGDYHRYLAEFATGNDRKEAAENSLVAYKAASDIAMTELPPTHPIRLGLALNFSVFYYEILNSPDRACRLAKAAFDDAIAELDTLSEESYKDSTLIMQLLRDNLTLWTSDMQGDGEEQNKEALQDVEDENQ
The experiment in a line: crystal structure. The following applies: remark: other sources report otherwise.

B1: full length CrkII, dimer (CrkII^FL dimer), P46108-1 1-304 (natural protein)
chain: MAGNFDSEERSSWYWGRLSRQEAVALLQGQRHGVFLVRDSSTSPGDYVLSVSENSRVSHYIINSSGPRPPVPPSPAQPPPGVSPSRLRIGDQEFDSLPALLEFYKIHYLDTTTLIEPVSRSRQGSGVILRQEEAEYVRALFDFNGNDEEDLPFKKGDILRIRDKPEEQWWNAEDSEGKRGMIPVPYVEKYRPASASVSALIGGNQEGSHPQPLGGPEPGPYAQPSVNTPLPNLQNGPIYARVIQKRVPNAYDKTALALEVGELVKVTKINVSGQWEGECNGKRGHFPFTHVRLLDQQNPDEDFS
B1: in assay [1], the percent of the total isolated protein that is dimer was found to be 10% and the stoichiometry N (in general, a count of units in the complex or per binding partner) came out at 2.

B2: human 14-3-3ε, P62258-1 1-255 (natural protein)
chain: T1 chain
In assay [2], B2 yielded a stoichiometry N of 2.
